Measurements taken from IntAct's records for PubMed 21423209.

B1: Catenin beta-1 (Homo sapiens), P35222 (parent)
chain: MATQADLMELDMAMEPDRKAAVSHWQQQSYLDSGIHSGATTTAPSLSGKGNPEEEDVDTSQVLYEWEQGFSQSFTQEQVADIDGQYAMTRAQRVRAAMFPETLDEGMQIPSTQFDAAHPTNVQRLAEPSQMLKHAVVNLINYQDDAELATRAIPELTKLLNDEDQVVVNKAAVMVHQLSKKEASRHAIMRSPQMVSAIVRTMQNTNDVETARCTAGTLHNLSHHREGLLAIFKSGGIPALVKMLGSPVDSVLFYAITTLHNLLLHQEGAKMAVRLAGGLQKMVALLNKTNVKFLAITTDCLQILAYGNQESKLIILASGGPQALVNIMRTYTYEKLLWTTSRVLKVLSVCSSNKPAIVEAGGMQALGLHLTDPSQRLVQNCLWTLRNLSDAATKQEGMEGLLGTLVQLLGSDDINVVTCAAGILSNLTCNNYKNKMMVCQVGGIEALVRTVLRAGDREDITEPAICALRHLTSRHQEAEMAQNAVRLHYGLPVVVKLLHPPSHWPLIKATVGLIRNLALCPANHAPLREQGAIPRLVQLLVRAHQDTQRRTSMGGTQQQFVEGVRMEEIVEGCTGALHILARDVHNRIVIRGLNTIPLFVQLLYSPIENIQRVAAGVLCELAQDKEAAEAIEAEGATAPLTELLHSRNEGVATYAAAVLFRMSEDKPQDYKKRLSVELTSSLFRTEPMAWNETADLGLDIGAQGEPLGYRQDDPSYRSFHSGGYGQDALGMDPMMEHEMGGHHPGADYPVDGLPDLGHAQDLMDGLPPGDSNQLAWFDTDL

Variants of: B1
Conditions: with ron_mouse Mst1r

| Variant | effect of a mutation on the interaction |
| --- | --- |
| Y654F;Y670F | disrupting interaction |
